Experimental data: publication PMC4629891

Target: nucleolin (on the surface of live Huh7 cells) (UniProt P19338)
Assay: flow cytometry on live Huh7 cells
Details: 5 mM MgCl2, whole-cell apparent Kd, Dulbecco's PBS, 4.5 g/L glucose, 5 mM MgCl2, 0.1 mg/mL yeast tRNA, 1 mg/mL BSA, on ice 30 min, 2x10^5 cells in 200 uL, pH not stated

Chain of UniProt P19338 (P19338 whole entry): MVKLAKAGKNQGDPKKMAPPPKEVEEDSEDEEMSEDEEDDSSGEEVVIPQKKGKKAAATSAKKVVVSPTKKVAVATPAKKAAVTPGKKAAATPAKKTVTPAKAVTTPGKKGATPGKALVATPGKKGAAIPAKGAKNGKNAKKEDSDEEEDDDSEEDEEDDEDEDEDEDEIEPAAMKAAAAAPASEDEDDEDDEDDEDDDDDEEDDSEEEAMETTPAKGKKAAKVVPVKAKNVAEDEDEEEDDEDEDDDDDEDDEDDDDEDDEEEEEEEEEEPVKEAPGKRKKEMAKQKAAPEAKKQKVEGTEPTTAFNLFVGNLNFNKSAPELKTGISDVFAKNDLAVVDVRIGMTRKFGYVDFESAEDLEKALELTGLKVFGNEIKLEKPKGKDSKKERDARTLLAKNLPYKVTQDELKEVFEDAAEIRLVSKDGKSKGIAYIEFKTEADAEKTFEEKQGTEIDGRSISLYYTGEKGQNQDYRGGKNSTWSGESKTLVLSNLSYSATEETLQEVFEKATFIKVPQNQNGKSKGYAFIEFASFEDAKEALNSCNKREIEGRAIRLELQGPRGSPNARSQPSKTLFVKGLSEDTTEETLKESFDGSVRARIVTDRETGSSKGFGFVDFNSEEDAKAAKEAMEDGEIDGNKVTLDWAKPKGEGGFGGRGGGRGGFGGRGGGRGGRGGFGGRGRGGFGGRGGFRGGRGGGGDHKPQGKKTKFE

Sequence	Kd (doxorubicin adducts via formaldehyde methylene links to guanine N2, 5.4 +/- 0.1 Dox per strand)	Kd
GGTGGTGGTGGTTGTGGTGGTGGTGG [AS1411-Dox adduct]	0.0573 µM	
GGTGGTGGTGGTTGTGGTGGTGGTGG [AS1411 (AGRO100)]		0.0548 µM
